Consider five molecules from US20240024520A1, “AUTONOMOUS KNOB DOMAIN PEPTIDES” (UCB BIOPHARMA SRL, priority 2020, published 2024).

The target in test [1] is human complement component C5 (human), P01031.
Test [2] has the same target. The source holds these as a separate data set.
For test [3] the target is unchanged. This is another data set of the same source.
Test [4] has the same target. This is another data set of the same source.
Test [5] has the same target. In words: SPR multi-cycle kinetics.

Several values for one entry are separate records, joined by “and”; a condition that tells them apart may be missing. Equal entries are not always repeated. Where two headings read alike, the source gives them in different places.

human complement component C5 (human), P01031, sequence (P01031 19-673 limits assumed, chain 1 of 2): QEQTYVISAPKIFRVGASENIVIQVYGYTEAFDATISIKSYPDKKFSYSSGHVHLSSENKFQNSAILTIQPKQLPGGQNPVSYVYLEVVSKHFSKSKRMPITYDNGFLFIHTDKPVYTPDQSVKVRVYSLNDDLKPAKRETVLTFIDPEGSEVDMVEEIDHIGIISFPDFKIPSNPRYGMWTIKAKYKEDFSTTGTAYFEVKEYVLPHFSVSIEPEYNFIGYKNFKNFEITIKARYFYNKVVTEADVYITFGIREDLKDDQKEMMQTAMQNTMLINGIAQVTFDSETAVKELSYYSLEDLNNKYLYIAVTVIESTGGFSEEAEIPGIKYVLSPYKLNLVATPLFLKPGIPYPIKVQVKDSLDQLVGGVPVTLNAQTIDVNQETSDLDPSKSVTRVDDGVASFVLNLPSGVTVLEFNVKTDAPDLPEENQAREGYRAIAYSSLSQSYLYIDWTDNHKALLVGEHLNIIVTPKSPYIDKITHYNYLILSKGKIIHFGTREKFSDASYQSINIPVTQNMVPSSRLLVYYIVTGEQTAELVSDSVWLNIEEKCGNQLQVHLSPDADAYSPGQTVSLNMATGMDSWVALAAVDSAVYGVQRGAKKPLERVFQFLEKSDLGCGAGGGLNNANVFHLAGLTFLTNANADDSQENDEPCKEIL
human complement component C5 (human), P01031, sequence (P01031 678-1676 limits assumed, chain 2 of 2): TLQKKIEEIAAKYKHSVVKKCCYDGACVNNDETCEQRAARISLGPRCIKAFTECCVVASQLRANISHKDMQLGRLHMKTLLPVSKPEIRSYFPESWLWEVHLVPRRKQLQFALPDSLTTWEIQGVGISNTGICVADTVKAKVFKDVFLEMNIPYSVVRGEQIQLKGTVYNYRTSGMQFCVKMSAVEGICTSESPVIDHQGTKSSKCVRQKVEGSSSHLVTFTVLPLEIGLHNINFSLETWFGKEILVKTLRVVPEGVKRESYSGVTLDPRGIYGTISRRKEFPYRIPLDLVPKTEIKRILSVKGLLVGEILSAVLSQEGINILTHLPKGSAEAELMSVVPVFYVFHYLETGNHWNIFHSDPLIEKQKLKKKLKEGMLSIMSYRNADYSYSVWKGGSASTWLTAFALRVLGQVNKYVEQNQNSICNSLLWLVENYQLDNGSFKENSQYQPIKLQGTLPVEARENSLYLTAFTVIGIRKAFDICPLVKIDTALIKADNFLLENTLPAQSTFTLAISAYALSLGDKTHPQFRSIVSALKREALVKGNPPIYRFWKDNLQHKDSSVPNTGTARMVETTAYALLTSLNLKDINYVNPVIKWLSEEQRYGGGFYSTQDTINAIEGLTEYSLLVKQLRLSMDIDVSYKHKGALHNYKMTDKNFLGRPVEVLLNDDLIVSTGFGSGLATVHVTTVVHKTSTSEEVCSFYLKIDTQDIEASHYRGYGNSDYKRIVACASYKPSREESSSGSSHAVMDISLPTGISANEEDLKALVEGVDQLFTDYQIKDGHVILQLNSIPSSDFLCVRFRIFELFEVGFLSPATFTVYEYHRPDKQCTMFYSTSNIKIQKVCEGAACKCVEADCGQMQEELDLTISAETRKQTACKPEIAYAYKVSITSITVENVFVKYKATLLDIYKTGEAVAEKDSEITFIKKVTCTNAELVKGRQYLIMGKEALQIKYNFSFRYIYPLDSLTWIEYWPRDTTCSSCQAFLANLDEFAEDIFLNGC

B1: K149 knob domain peptide cleaved from the 645 Fab (peptide)
peptide: GSGSCPDGFSYRSWDDFCCPMVGRCLAPRNGSENLYFQ
modifications: not checked
What is called Kd is a measure of binding affinity in units of concentration. Broadly, the Ki is the equilibrium dissociation constant of an inhibitor or competing ligand from its target. A lower Ki goes with tighter binding. On to B1, for which the dissociation constant (Kd) in test [1] came out at 36.5 nM. The Ki in test [2] is 26.7 nM.

B2: K136 knob domain peptide cleaved from the 645 Fab (peptide)
peptide: GSTCPDNYREVDGCDPYDCCLTTWCTNSYCTRYIENLYFQ
modifications: not checked
The term IC50 denotes the concentration at which inhibition is half-maximal. Read a low IC50 as greater potency. In the case of B2, the dissociation constant Kd in test [1] worked out at 6.4 nM. Also, in test [2], the IC50 was 44.9 nM and 31.2 nM; the inhibitory constant (Ki) came out at 18.9 nM.

B3: K149chemFE knob domain peptide (peptide)
peptide: SCPDGFSYRSWDDFCCPMVGRCLAPRN
modifications: not checked
As usually defined, the koff is the first-order rate constant of dissociation. Read a low koff as a long-lived complex. The term kon denotes the rate constant with which the complex forms. Low values mean slower complex formation, high ones faster complex formation. In the case of B3, in test [3], the dissociation constant Kd was 5.57 nM, the dissociation rate constant (koff) amounted to 0.00448 s⁻¹ and the on-rate constant (kon) was found to be 861000 M⁻¹ s⁻¹.

B4: K149 knob domain peptide, chemically synthesised, free energy method (Example 4) (peptide)
peptide: SCPDGFSYRSWDDFCCPMVGRCLAPRNGS
modifications: not checked
In the case of B4, in test [4], the dissociation constant (Kd) is 4.46 nM, the off-rate (koff) is 0.00685 s⁻¹ and the kon is 1.54e+06 M⁻¹ s⁻¹.

B5: K149B knob domain peptide, chemically synthesised, site-directed disulphides (peptide)
peptide: SCPDGFSYRSWDDFCCPMVGRCLAPRN
modifications: not checked
Regarding B5, in test [4], the Kd stood at 246 nM, the koff was determined as 0.00732 s⁻¹ and the kon was found to be 29700 M⁻¹ s⁻¹. Besides, in test [3], the dissociation constant Kd is 269 nM, the koff is 0.00417 s⁻¹ and the on-rate constant (kon) worked out at 15600 M⁻¹ s⁻¹. The molecule further came in with a fold lower affinity than K149chemSD-A in test [5] of 35 fold.
